Data on 11 molecules can be found in US20200339680A1 (Alector, published 2020).

The target of experiment [1] is T1, human TMEM106B (human, UniProt Q9NUM4 2-274).
T1 construct: full-length, transiently expressed on HEK293 cells, or natively expressed on HeLa, U251 and A549 cells (the cell is named under assay); also the source of the Pepscan peptides; also called huTMEM106B; huTMEM
In words: FACS HEK+huTMEM 0.1 ug/ml.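 Note: flow cytometry binding of purified mouse IgG antibodies to HEK293 cells transiently expressing TMEM106B, read as median fluorescence intensity on live cells (propidium iodide negative gating).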
Protocol: (§1) Purified anti-TMEM106B antibodies were evaluated for their binding affinity to various TMEM106B-expressing cell lines including HEK293 transiently transfected with human/cyno/mouse TMEM106B, as well as HeLa cells and A549 cells. Antibodies tested for this experiment were mouse IgGs purified from hybridoma supernatant. Affinity binding to cells was determined as follows. Briefly, 1×10\hat{ }5 cells were aliquoted per well in 96-well round bottom plates and incubated with 50 μL of purified anti-TMEM106B antibody at various concentrations (10× dilutions starting at 10 μg/ml) in FACS buffer (PBS+2% FBS+1 mM EDTA). […] Sorting was performed on a iQue (Intellicyt), with sort gates drawn to exclude dead (propidium iodide+) cells. Binding data was analyzed using median fluorescent intensity (MFI) and graphed in Prism. Values presented are MFI.

Another experiment deals with T2, mouse TMEM106B (mouse, UniProt Q80X71 2-275).
T2 construct: transiently expressed on HEK293 cells, or native on mouse Neuro2a cells; also called moTMEM106B; murine TMEM106B
In words: FACS Neuro2a.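 Note: flow cytometry of antibody binding to cells: hybridoma supernatant or purified antibody at 10 µg/ml, 1 h on ice, secondary detection, propidium iodide–positive dead cells gated out.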

In experiment [2] the target is T1, human TMEM106B. Description: FACS U251.
Protocol: (§2) All cells were cultured in either T75 or T150 flasks. […] The enzyme was quenched by addition of fresh media, and the cells were then distributed into 96-well plates for FACS analysis.
(§3) FACS analysis was performed as follows. Each cell type was aliquoted in 96-well round bottom plates (2×10^5 cells per well), washed once with FACS buffer (PBS+2% FBS+1 mM EDTA), and incubated with 50 μL of hybridoma supernatant or purified antibody (10 μg/ml in FACS buffer) on ice for 1 hour. […] Following this secondary incubation, the cells were again washed 2× with ice-cold FACS buffer and resuspended in a final volume of 50 μL of FACS buffer+0.25 μl/well propidium iodide (Fisher Scientific #4BDB556463). Analysis was performed on a FACSCanto system (BD Biosciences) or iQue (Intellicyt), with sort gates drawn to exclude dead (i.e., propidium iodide positive) cells.
Experiment [3] has as its target T1, human TMEM106B. Description: FACS HEK+huTMEM 10 ug/ml.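 Note: flow cytometric binding of purified mouse IgG antibodies to HEK293 cells transiently expressing human TMEM106B, read as median fluorescence intensity on live cells with propidium iodide-positive cells excluded.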
Protocol: as §1
The target in experiment [4] is T1, human TMEM106B. In words: FACS HEK+huTMEM 1.0 ug/ml.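 Note: binding of purified mouse IgG antibodies to HEK293 cells transiently expressing human TMEM106B, read by flow cytometry as median fluorescence intensity of live, propidium iodide-negative cells.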
Protocol: as §1
Experiment [5] addresses T1, human TMEM106B. Description: FACS A549 1 ug/ml.
The target of experiment [6] is T1, human TMEM106B. Description: FACS HeLa.
Protocol: as §2, §3
The target in experiment [7] is T1, human TMEM106B. In words: FACS HEK+huTMEM 0.1 ug/ml (2nd column so headed).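 Note: flow cytometry binding of purified anti-TMEM106B mouse IgG to HEK293 cells transiently transfected with TMEM106B, read as median fluorescence intensity on live (propidium iodide-negative) cells.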
Protocol: as §1
The target of experiment [8] is T1, human TMEM106B. Description: FACS A549 10 ug/ml.
Experiment [9] deals with T1, human TMEM106B. In words: FACS A549.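 Note: flow cytometry of cells incubated on ice for 1 h with hybridoma supernatant or purified antibody at 10 µg/mL, dead propidium iodide-positive cells gated out.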
Protocol: as §2, §3

B1: TM-22 (antibody, V domains shown)
VH: QVQLQQSGPELVKPGASVKISCKASGYRFTSYYIHWVKQRPGQGLEWIGWIYPGNGITNYNEKFKGKATLTADTSSSTAYMQLSSLTSEDSAVYYCASPYYGIRNCYFDVWGTGTTVTVSS
VL: DVLMTQTPLSLPVSLGDHASISCRSGQSIVHSNGNTYLEWYLQKPGQSPKLLIYKVSNRFSGVPDRFSGSGSGTDFTLKISRVEAEDLGIYYCFQGSHVPWTFGGGTKLEIK
On to B1, for which the MFI is 833 MFI with human TMEM106B [1]; 400 MFI with mouse TMEM106B; 313 MFI in the experiment with human TMEM106B [2]; 3580 MFI with human TMEM106B [3]; 2100 MFI in the experiment with human TMEM106B [4]; 399 MFI with human TMEM106B [5]. Also, the MFI with human TMEM106B [6] was 408 MFI; in the experiment with human TMEM106B [7], 500 MFI; with human TMEM106B [8], 478 MFI; with human TMEM106B [9] it was 1570 MFI.

B2: TM-35 (antibody, V domains shown)
VH: QVQLQQSGPELVRPGTSVKISCKAPGYTFTRHWMQWVRQRPGQGLEWIGEILPGSNNIYYNEKVKGKATLTVDTSSSTSYMQLSSLTSEDSAVYFCARSLYDYDGVFAYWGQGTLVTVSA
VL: DVLMTQIPLSLPVSLGDQASISCRSSQSIVHRNGNTYLEWYLQKPGQSPKLLIYKVSNRFSGVPDRFSGSGSGTDFTLKISRVEAEDLGVYYCFQGSHVPYTFGGGTKLEIK
For the molecule B2, the MFI was 22600 MFI in the experiment with human TMEM106B [1]; 181 MFI with mouse TMEM106B; 370 MFI in the experiment with human TMEM106B [2]; 48700 MFI with human TMEM106B [3]; 55400 MFI in the experiment with human TMEM106B [4]; 3270 MFI with human TMEM106B [5]. Also, the MFI in the experiment with human TMEM106B [6] was determined as 241 MFI; with human TMEM106B [7], 4080 MFI; with human TMEM106B [8] it was 4200 MFI; with human TMEM106B [9] it was 982 MFI.

B3: TM-25 (antibody, V domains shown)
VH: EVQLVESGGDLVKPGGSLRLSCAASGFTFSGYGMSWIRQTPDKRLEWVATISSGGRYTVYPDSVKGRFTMSRDNVKNTLYLQMSSLKSEDTALYYCARDNFYSYAMDYWGLGTSVTVSA
VL: DIVMTQAAFSNPVTLGTSASISCRSSKSLLHSNGITYLFWYLQKPGQSPQLLIYQMSNLASGVPDRFSSSGSGTDFTLRISRVEAEDVGVYYCAQNLELWTFGGGTKLEIK
B3: the MFI with human TMEM106B [1] stood at 32800 MFI; with mouse TMEM106B it was 354 MFI; with human TMEM106B [2], 1110 MFI; in the experiment with human TMEM106B [3] it was 60300 MFI; with human TMEM106B [4] it was 64700 MFI; with human TMEM106B [5], 4530 MFI. In addition, the MFI with human TMEM106B [6] stood at 2560 MFI; with human TMEM106B [7], 4310 MFI; with human TMEM106B [8] it was 7000 MFI; in the experiment with human TMEM106B [9], 1700 MFI.

B4: TM-42 (antibody, V domains shown)
VH: QVQLQQSGAELAKPGASVKLSCKASGYTFTNYWMHWVKKRPGQGLEWIGYINPSSGYTKYNQKFKDKATLTADKSSNTAYMQLSSLTYEDSAVYYCTREGGSISDWYFDVWGTGTTVTVSS
VL: DIVMTQAAPSLPVTPGESVSISCRSSKSLLHSNGNTYLYWFLQRPGQSPQLLIYRMSNLASGVPDRFSGSGSGTAFTLRISRVEAEDVGVYYCMQHLEYPYTFGGGTKLEIK
Turning to B4, the MFI in the experiment with human TMEM106B [1] was 16700 MFI; with mouse TMEM106B, 237 MFI; with human TMEM106B [2], 326 MFI; with human TMEM106B [3], 60100 MFI; with human TMEM106B [4] it was 58100 MFI; in the experiment with human TMEM106B [5] it was 1780 MFI. Also, the MFI in the experiment with human TMEM106B [6] came to 215 MFI; with human TMEM106B [7], 2070 MFI; with human TMEM106B [8] it was 3300 MFI; with human TMEM106B [9], 947 MFI.

B5: TM-37 (antibody, V domains shown)
VH: QVQLQQSGAELAKPGASVKLSCKASGYTFTSYWMHWVKQRPGQGLEWIGYVNPSSGYTKNNQKFKDKVTLTADKSSSTAYMQLSSLTYEDSAVYYCAREGGSISDWYFDVWGTGTTVTVSS
VL: DIVMTQAAPSVPVTPGESVSISCRSSKSLLHSNGNTYSYWFLQRPGQSPQLLIYRMSNLASGVPDRFSGSGSGTAFTLRISRVEAEDVGVYYCMQHLEYPYTFGGGTKLEIK
Regarding B5, the MFI with human TMEM106B [1] worked out at 29400 MFI; with mouse TMEM106B, 208 MFI; with human TMEM106B [2], 408 MFI; with human TMEM106B [3], 50500 MFI; with human TMEM106B [4], 58700 MFI; with human TMEM106B [5] it was 2980 MFI. Further, the MFI in the experiment with human TMEM106B [6] was found to be 254 MFI; with human TMEM106B [7], 3920 MFI; with human TMEM106B [8], 4210 MFI; with human TMEM106B [9] it was 1040 MFI.

B6: TM-29 (antibody, V domains shown)
VH: QVQLRQSGAELVRPGASVKLSCKASGYTFTDYYINWVKQRPGQGLEWIARIYPGSGYTYYNEKFKGKATLTAEGSSNTAYMQLSSLTSEDSAVYFCANHYTNPFAYWGQGTLVTVSA
VL: DIVMTQAAFSNPVTLGTSASISCRSSKSLLHYNGITYLYWYLQKPGQSPQLLIYQMSNLASGVPDRFSSSGSGTDFTLRISRVEAEDVGVYYCAQNLELPYTFGGGTKLEIK
In the case of B6, the MFI with human TMEM106B [1] is 24400 MFI; with mouse TMEM106B, 1480 MFI; in the experiment with human TMEM106B [2] it was 730 MFI; in the experiment with human TMEM106B [3] it was 61200 MFI; with human TMEM106B [4], 63300 MFI; in the experiment with human TMEM106B [5] it was 2480 MFI. The MFI with human TMEM106B [6] is 1650 MFI; with human TMEM106B [7], 4050 MFI; with human TMEM106B [8], 4200 MFI; in the experiment with human TMEM106B [9], 1410 MFI.

B7: TM-23 (antibody, V domains shown)
VH: QVQLQQSGAELIRPGTSVKVSCKASGYAFTNYLIEWVKKRPGQGLEWIGVINPGSGITNYNEKFKGKATLTADKSSSTAYMQLSSLTSEDSAVYFCARSDFITTVVADYWGQGTTVTVSS
VL: DIVVTQTPLSLPVSFGDQVSISCRSSQSLTNYYGNTYLSWYLHKPGQSPQLLIYGISNRFSGVPDRFSGSGSGTDFTLKISTIKPEDLGMYYCLQGTHQPRTFGGGTKLEIK
Regarding B7, the MFI with human TMEM106B [1] is 2410 MFI; with mouse TMEM106B it was 333 MFI; with human TMEM106B [2], 278 MFI; with human TMEM106B [3], 12400 MFI; in the experiment with human TMEM106B [4], 3900 MFI; with human TMEM106B [5] it was 398 MFI. Moreover, the MFI with human TMEM106B [6] worked out at 308 MFI; with human TMEM106B [7] it was 1100 MFI; in the experiment with human TMEM106B [8] it was 757 MFI; in the experiment with human TMEM106B [9], 1090 MFI.

B8: TM-26 (antibody, V domains shown)
VH: QVQLQQSGAELIRPGTSVKVSCKASGYAFTNYLIEWVKKRPGQGLEWIGVINPGSGITNYNEKFKGKATLTADKSSSTAYMQLSSLTSEDSAVYFCARSDFITTVVADYWGQGTTVTVSS
VL: DIVVTQTPLSLPVSFGDQVSISCRSSQSLTNYYGNTYLSWYLHKPGQSPQLLIYGISNRFSGVPDRFSGSGSGTDFTLKISTIKPEDLGMYYCLQGTHQPRTFGGGTKLEIK
For the molecule B8, the MFI with human TMEM106B [1] turned out to be 1960 MFI; in the experiment with mouse TMEM106B, 324 MFI; with human TMEM106B [2] it was 300 MFI; with human TMEM106B [3], 3850 MFI; with human TMEM106B [4], 3340 MFI; with human TMEM106B [5] it was 380 MFI. Besides, the MFI with human TMEM106B [6] turned out to be 384 MFI; in the experiment with human TMEM106B [7] it was 1000 MFI; with human TMEM106B [8] it was 509 MFI; with human TMEM106B [9], 952 MFI.

B9: TM-33 (antibody, V domains shown)
VH: EFQLQQSGPELVKPGASVKISCKASGYSFTDYNMNWVKQSNGKSLEWIGVINPNYGTTSYNQKFKGKATLTVDQSSSTAYMQLNSLTSEDSAVYYCASSYWGQGTLVTVSA
VL: DIVMTQSQKFMSTTVGDRVSITCKASQNVGTAVAWYQQKPGQSPKLLIYSASNRYTGVPDRFTGSGSGTDFTLTISNMQSEDLADYFCQQYSSYPYTFGGGTKLEIK
notes: mouse IgG (hybridoma)
Turning to B9, the MFI with human TMEM106B [1] was 1750 MFI; with mouse TMEM106B, 233 MFI; in the experiment with human TMEM106B [2], 202 MFI; with human TMEM106B [3], 12100 MFI; with human TMEM106B [4] it was 5630 MFI; in the experiment with human TMEM106B [5], 366 MFI. Moreover, the MFI was determined as 148 MFI with human TMEM106B [6], 651 MFI in the experiment with human TMEM106B [7], 514 MFI in the experiment with human TMEM106B [8] and 298 MFI with human TMEM106B [9].

B10: TM-28 (antibody, V domains shown)
VH: EVQLQQSGPVLVKPGPSVKISCMASVFTFNDYYIHWVKQSHGKSLEWIGLVYPYNGGTNYNQNFKGKATLTVDTSSRTAYMELNSLTSEDSAVYYCARSYFSNPIGYWGQGTLVTVSE
VL: DIVMTQSPSSLSVSVGEKVTVSCKSSQSLLNSGNQKNYLAWYQQKPGQPPKLLIYGASTRESGVPDRFTGSGSGTDFTLTISSVQAEDLAVYYCQNDHSYPLTFGAGTKLELK
For B10, the MFI in the experiment with human TMEM106B [1] was 19800 MFI; with mouse TMEM106B, 2740 MFI; in the experiment with human TMEM106B [2], 998 MFI; with human TMEM106B [3], 64800 MFI; in the experiment with human TMEM106B [4], 66400 MFI; with human TMEM106B [5], 2630 MFI. Also, the MFI came out at 2790 MFI with human TMEM106B [6], 3340 MFI with human TMEM106B [7], 4350 MFI with human TMEM106B [8] and 2000 MFI with human TMEM106B [9].

B11: TM-27 (antibody, V domains shown)
VH: QVQLQQSGAELVRPGTSVKVSCKASGYALTNYLIEWVKQRPGQGLEWIGVINPGSGSTKYNEKFKGKATLTADKSSSTAYMQLSSLTSEDSAVYFCARIIYDHDWYFDVWGTGTTVTVSS
VL: QIVLTQSPAIMSASPGEKVTISCSASSSISYMYWYQQKPGSSPKPWIYRTSTLASGVPARFSGSGSGTSYSLTISSMEAEDAATYYCQQYHSYPRTFGGGTKLEIK
For the molecule B11, the MFI came out at 1700 MFI in the experiment with human TMEM106B [1]; 1580 MFI with mouse TMEM106B; 1320 MFI in the experiment with human TMEM106B [2]; 4140 MFI in the experiment with human TMEM106B [3]; 3040 MFI with human TMEM106B [4]; 431 MFI in the experiment with human TMEM106B [5]. Further, the MFI with human TMEM106B [6] worked out at 2960 MFI; with human TMEM106B [7], 744 MFI; with human TMEM106B [8] it was 622 MFI; with human TMEM106B [9] it was 1930 MFI.
